Source: paper PMC11262565

Biological target: biotinylated human IgG1 Fc protein (IG1-H8213, ACROBiosystems) (human)
Test: BLI

Substance	Kd
Fc-ARM A-Z (HER2-specific affibody Z_(HER2:342) fused to a single Z domain) (designed binder)	7.8 nM
Fc-ARM A-ZZ (HER2-specific affibody Z_(HER2:342) fused to double Z domains) (designed binder)	0.28 nM
